# Assay results published in the supplement of paper PMC10724198.
# ± gives the standard deviation of the averaged measurements.
# Assays:
# Assay in all cases: protein stability index of tFT-peptide fusion (C-terminal peptide) (PSI (0-1 scale)); higher = more stable (slower turnover)
# Saccharomyces cerevisiae [1] = details: temperature: 30 C
# Description: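 MPS profiling in S. cerevisiae of the yeast C-terminome library: the last 12 aa of each annotated ORF are fused to the C-terminus of a sfGFP-mCherry timer, after a GGGS linker. Cells are FACS-sorted into 8 mCherry/sfGFP bins and deep-sequenced. PSI runs from 0 (unstable) to 1 (stable); wild type and das1Δ backgrounds, two technical replicates each.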
# Saccharomyces cerevisiae [2] = details: genetic background: wild type; temperature: 30 C
# Saccharomyces cerevisiae [3] = test system: Saccharomyces cerevisiae
# Description: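 MPS profiling in S. cerevisiae of the tFT-X12 degron library: putative degron peptides plus stable controls, 12 aa, fused to the C-terminus of a sfGFP-mCherry timer. Cells are FACS-sorted into 8 mCherry/sfGFP bins and deep-sequenced. PSI runs from 0 (unstable) to 1 (stable). Backgrounds are wild type, das1Δ and doa10Δ at 30 °C, and wild type, das1Δ, cdc34-1 and cdc53-1 at 37 °C; 2-3 technical replicates each.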
# [4] = genetic background: das1 deletion
# [5] = genetic background: cdc34-1, temperature: 37 C
# [6] = genetic background: cdc53-1, temperature: 37 C
# [7] = genetic background: das1 deletion, temperature: 30 C
# [8] = genetic background: das1 deletion, temperature: 37 C
# [9] = genetic background: doa10 deletion, temperature: 30 C
# [10] = genetic background: wild type, temperature: 30 C
# [11] = genetic background: wild type, temperature: 37 C
Sequence,protein stability index (Saccharomyces cerevisiae [1]; [4]),protein stability index (Saccharomyces cerevisiae [1]; genetic background: wild type),other results
AALESEDEDDEA [CAF20 C-terminal 12 aa],0.685 ± 0.041,0.6667 ± 0.0033,
ADDDFDADMELE [CDC16 C-terminal 12 aa],0.685 ± 0.0038,0.728 ± 0.028,
ADQELFMGIMNA [NMD5 C-terminal 12 aa],0.676 ± 0.012,0.677 ± 0.0097,
AERAGNAGVKAE [SND3 C-terminal 12 aa],0.654 ± 0.0096,0.685 ± 0.017,
AFTAKWKAENKQ [FYV4 C-terminal 12 aa],0.691 ± 0.017,0.6671 ± 0.0054,
AGAAAVANQGKK [GPM1 C-terminal 12 aa],0.697 ± 0.016,0.715 ± 0.064,
AIAEIKKSLAFA [SDH2 C-terminal 12 aa],0.684 ± 0.024,0.688 ± 0.086,
AIRRENEWAEDR [SKP1 C-terminal 12 aa],0.6841 ± 0.005,0.709 ± 0.0089,
AKDIKGYGTQKI [PRE4 C-terminal 12 aa],0.65979 ± 0.00058,0.695 ± 0.022,
AKISDKENKAFL [MRPL15 C-terminal 12 aa],0.6927 ± 0.0019,0.678 ± 0.025,
AKPALFERFINA [MCD1 C-terminal 12 aa],0.6979 ± 0.0043,0.665 ± 0.011,
AKTSLYTATVIS [PAC11 C-terminal 12 aa],0.636 ± 0.015,0.6331 ± 0.006,
ALNQVLGVPGAM [SSH1 C-terminal 12 aa],0.683 ± 0.017,0.671 ± 0.031,
ALVDQLIAKYSS [ACB1 C-terminal 12 aa],0.703 ± 0.029,0.663 ± 0.042,
ANARLESESKDP [UNG1 C-terminal 12 aa],0.6954 ± 0.0034,0.667 ± 0.033,
ANGTSPGVHVRE [IRC15 C-terminal 12 aa],0.693 ± 0.0096,0.678 ± 0.017,
ARGAGGFGSTGN [DUT1 C-terminal 12 aa],0.697 ± 0.0079,0.7208 ± 0.0062,
ARRTFTGRKIVY [ARC35 C-terminal 12 aa],0.7301 ± 0.0013,0.7288 ± 0.0052,
ASEKEKSECVVM [MIY2 C-terminal 12 aa],0.733 ± 0.017,0.745 ± 0.0097,
ASFAKDVISLPE [YER046W-A C-terminal 12 aa],0.7202 ± 0.00094,0.699 ± 0.079,
ASRHSSTKKTST [CAB1 C-terminal 12 aa],0.6986 ± 0.0058,0.692 ± 0.054,
ATGTKSDRPIWR [SHE1 C-terminal 12 aa],0.6627 ± 0.00093,0.72 ± 0.034,

Sequence,protein stability index (Saccharomyces cerevisiae [1]; [4]),protein stability index (Saccharomyces cerevisiae [1]; genetic background: wild type),other results
ATRNLNQYWRVL [YAL019W-A C-terminal 12 aa],0.68 ± 0.011,0.58 ± 0.023,
AVGETRLKKSKK [PRP21 C-terminal 12 aa],0.689 ± 0.016,0.779 ± 0.12,
AVSEELIKMWYD [GCN3 C-terminal 12 aa],0.7218 ± 0.0015,0.736 ± 0.037,
AYECAKHFLMTY [MRS3 C-terminal 12 aa],0.689 ± 0.033,0.653 ± 0.057,
CFRWLVRNHLLS [YEL045C C-terminal 12 aa],0.692 ± 0.0081,0.187 ± 0.0022,
CHAYAKKAKEFL [PAM17 C-terminal 12 aa],0.694 ± 0.019,0.7 ± 0.047,
CKSHAITNNITM [YER152C C-terminal 12 aa],0.711 ± 0.026,0.687 ± 0.0091,
CPTPGCTCQCNK [SEA4 C-terminal 12 aa],0.69 ± 0.015,0.659 ± 0.0093,
CRKGVSHKGVCH [YBL111C C-terminal 12 aa],0.721 ± 0.026,0.71 ± 0.035,
CSTFAFAERLQC [YIL021C-A C-terminal 12 aa],0.6901 ± 0.003,0.642 ± 0.029,
CYYKTQKSQISN [SIP1 C-terminal 12 aa],0.715 ± 0.011,0.727 ± 0.016,
DALHKMDKNVLE [YOL029C C-terminal 12 aa],0.696 ± 0.028,0.728 ± 0.076,
DAMEFIAQSHKS [OCT1 C-terminal 12 aa],0.694 ± 0.011,0.719 ± 0.021,
DASALIEIQEKC [SST2 C-terminal 12 aa],0.669 ± 0.021,0.695 ± 0.059,
DASSTKNTDHIV [MEP2 C-terminal 12 aa],0.678 ± 0.014,0.679 ± 0.068,
DDDDDDDDDEAD [RAD6 C-terminal 12 aa],0.686 ± 0.015,0.667 ± 0.0086,
DDDEMDIEFEDV [TFA1 C-terminal 12 aa],0.71135 ± 0.00066,0.739 ± 0.01,
DDEAGALIPENC [SOL4 C-terminal 12 aa],0.705 ± 0.03,0.688 ± 0.0086,
DDECTYKMAKFK [YNL303W C-terminal 12 aa],0.68172 ± 0.00037,0.664 ± 0.035,
DDEEDEEEGQVA [USO1 C-terminal 12 aa],0.704 ± 0.013,0.66 ± 0.027,
DEEDEEDVKTEV [CAB3 C-terminal 12 aa],0.6848 ± 0.0014,0.664 ± 0.016,
DEELFLLSKSLR [SPC98 C-terminal 12 aa],0.724 ± 0.013,0.6784 ± 0.0026,

Sequence,protein stability index (Saccharomyces cerevisiae [1]; [4]),protein stability index (Saccharomyces cerevisiae [1]; genetic background: wild type),other results
DEGRNTSSVVNK [MAL31 C-terminal 12 aa],0.688 ± 0.0089,0.7419 ± 0.0019,
DELTTVLNQLVR [EXO70 C-terminal 12 aa],0.6823 ± 0.0024,0.66 ± 0.011,
DEMHYSDEDSSE [RRN11 C-terminal 12 aa],0.699 ± 0.073,0.709 ± 0.028,
DEYFNEYNNNSN [TFB1 C-terminal 12 aa],0.7196 ± 0.0065,0.675 ± 0.013,
DGIRQVDDFQAQ [PRE1 C-terminal 12 aa],0.701 ± 0.012,0.658 ± 0.0071,
DGITLDMPLFEF [AOS1 C-terminal 12 aa],0.7107 ± 0.0043,0.731 ± 0.047,
DHMQLTGRILVL [YJL132W C-terminal 12 aa],0.58733 ± 0.00058,0.5716 ± 0.0024,
DHQVDFLGNKIL [YLR463C C-terminal 12 aa],0.712 ± 0.0082,0.715 ± 0.022,
DHSNAFESILIF [TRS130 C-terminal 12 aa],0.6353 ± 0.0054,0.684 ± 0.093,
DIPSEEGTKVIL [BSC3 C-terminal 12 aa],0.701 ± 0.016,0.691 ± 0.011,
DKELDSTFDTFG [MIF2 C-terminal 12 aa],0.701 ± 0.012,0.699 ± 0.023,
DKEWTNYATHIG [AYT1 C-terminal 12 aa],0.696 ± 0.019,0.701 ± 0.013,
DKIQDARNSSTK [MHP1 C-terminal 12 aa],0.677 ± 0.028,0.702 ± 0.041,
YLSLPSSIFLCF,,,protein stability index (Saccharomyces cerevisiae [2]): 0.422 ± 0.085; protein stability index (Saccharomyces cerevisiae [3]; [5]): 0.501 ± 0.022; protein stability index (Saccharomyces cerevisiae [3]; [6]): 0.504 ± 0.0066; protein stability index (Saccharomyces cerevisiae [3]; [7]): 0.461 ± 0.018; protein stability index (Saccharomyces cerevisiae [3]; [8]): 0.59 ± 0.019; protein stability index (Saccharomyces cerevisiae [3]; [9]): 0.498 ± 0.024; protein stability index (Saccharomyces cerevisiae [3]; [10]): 0.38 ± 0.015; protein stability index (Saccharomyces cerevisiae [3]; [11]): 0.5422 ± 0.0047
YLTLAGFPLNLF,,,protein stability index (Saccharomyces cerevisiae [2]): 0.469 ± 0.041; protein stability index (Saccharomyces cerevisiae [3]; [5]): 0.666 ± 0.014; protein stability index (Saccharomyces cerevisiae [3]; [6]): 0.7399 ± 0.0022; protein stability index (Saccharomyces cerevisiae [3]; [7]): 0.649 ± 0.017; protein stability index (Saccharomyces cerevisiae [3]; [8]): 0.762 ± 0.0092; protein stability index (Saccharomyces cerevisiae [3]; [9]): 0.273 ± 0.0065; protein stability index (Saccharomyces cerevisiae [3]; [10]): 0.314 ± 0.017; protein stability index (Saccharomyces cerevisiae [3]; [11]): 0.531 ± 0.011
YNNKITRYRRDS,,,protein stability index (Saccharomyces cerevisiae [2]): 0.52 ± 0.082; protein stability index (Saccharomyces cerevisiae [3]; [5]): 0.654 ± 0.053; protein stability index (Saccharomyces cerevisiae [3]; [6]): 0.731 ± 0.034; protein stability index (Saccharomyces cerevisiae [3]; [7]): 0.661 ± 0.055; protein stability index (Saccharomyces cerevisiae [3]; [8]): 0.752 ± 0.0077; protein stability index (Saccharomyces cerevisiae [3]; [9]): 0.388 ± 0.012; protein stability index (Saccharomyces cerevisiae [3]; [10]): 0.375 ± 0.024; protein stability index (Saccharomyces cerevisiae [3]; [11]): 0.612 ± 0.0082
YRNRKMYCITNC,,,protein stability index (Saccharomyces cerevisiae [2]): 0.423 ± 0.014; protein stability index (Saccharomyces cerevisiae [3]; [5]): 0.682 ± 0.03; protein stability index (Saccharomyces cerevisiae [3]; [6]): 0.737 ± 0.017; protein stability index (Saccharomyces cerevisiae [3]; [7]): 0.636 ± 0.038; protein stability index (Saccharomyces cerevisiae [3]; [8]): 0.743 ± 0.018; protein stability index (Saccharomyces cerevisiae [3]; [9]): 0.207 ± 0.044; protein stability index (Saccharomyces cerevisiae [3]; [10]): 0.26 ± 0.017; protein stability index (Saccharomyces cerevisiae [3]; [11]): 0.51 ± 0.058
YTHRYFVRLFAV,,,protein stability index (Saccharomyces cerevisiae [2]): 0.3123 ± 0.0026; protein stability index (Saccharomyces cerevisiae [3]; [5]): 0.518 ± 0.047; protein stability index (Saccharomyces cerevisiae [3]; [6]): 0.708 ± 0.0076; protein stability index (Saccharomyces cerevisiae [3]; [7]): 0.504 ± 0.019; protein stability index (Saccharomyces cerevisiae [3]; [8]): 0.6558 ± 0.0057; protein stability index (Saccharomyces cerevisiae [3]; [9]): 0.206 ± 0.0073; protein stability index (Saccharomyces cerevisiae [3]; [10]): 0.2 ± 0.014; protein stability index (Saccharomyces cerevisiae [3]; [11]): 0.405 ± 0.0098
YVLVVSFLACVF,,,protein stability index (Saccharomyces cerevisiae [2]): 0.192 ± 0.012; protein stability index (Saccharomyces cerevisiae [3]; [5]): 0.0628 ± 0.013; protein stability index (Saccharomyces cerevisiae [3]; [6]): 0.172 ± 0.053; protein stability index (Saccharomyces cerevisiae [3]; [7]): 0.142 ± 0.03; protein stability index (Saccharomyces cerevisiae [3]; [8]): 0.266 ± 0.0094; protein stability index (Saccharomyces cerevisiae [3]; [9]): 0.104 ± 0.021; protein stability index (Saccharomyces cerevisiae [3]; [10]): 0.13 ± 0.014; protein stability index (Saccharomyces cerevisiae [3]; [11]): 0.234 ± 0.0088
YWIFCYFFWGGV,,,protein stability index (Saccharomyces cerevisiae [2]): 0.455 ± 0.037; protein stability index (Saccharomyces cerevisiae [3]; [5]): 0.392 ± 0.032; protein stability index (Saccharomyces cerevisiae [3]; [6]): 0.483 ± 0.0098; protein stability index (Saccharomyces cerevisiae [3]; [7]): 0.358 ± 0.032; protein stability index (Saccharomyces cerevisiae [3]; [8]): 0.518 ± 0.008; protein stability index (Saccharomyces cerevisiae [3]; [9]): 0.3153 ± 0.0014; protein stability index (Saccharomyces cerevisiae [3]; [10]): 0.35 ± 0.015; protein stability index (Saccharomyces cerevisiae [3]; [11]): 0.501 ± 0.02
